Laboratory results as given in publication PMC3648529 (PLoS ONE, 2013).

Target: T1, biotinylated human soluble TWEAK (human, UniProt O43508, biotin (site not stated))
T1 construct: TWEAK, human, soluble form; Captured on a streptavidin (SA) sensor by its biotin; also called biotinylated TWEAK ligand
Assay: SPR; Biacore 2000, SA sensor, biotinylated human soluble TWEAK coupled at 150 RU; antibody injected at 100 nM, 2 min association, 5 min dissociation at 25 C in HBS-ET (10 mM HEPES pH 7.4, 150 mM NaCl, 1 mM EDTA, 0.05% Tween 20); half-life from kd of the interval 240-300 s
Conditions: both partners purified

T1 sequence (O43508 94-249): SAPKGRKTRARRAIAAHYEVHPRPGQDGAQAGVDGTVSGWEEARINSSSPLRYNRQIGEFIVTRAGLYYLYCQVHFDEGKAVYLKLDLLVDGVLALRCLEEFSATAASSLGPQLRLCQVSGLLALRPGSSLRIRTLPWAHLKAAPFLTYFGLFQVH

B1: chi TW-305 (chimeric rabbit anti-TWEAK monoclonal antibody) (antibody, V domains shown)
VH: QEQLVESGGGLVQPGGSLTLSCKASGFDFSTYYMSWVRQAPGKGLEWIGTVYVRQGTTYYASWLNGRFTISSDNAQNTVDLKMNSLTAADTATYFCAKGGYNYDDAFVIWGPGTLVTVSF
VL: AIEMTQTPFSVSAAVGGTVTINCQASQNIYSNLAWYQQKPGQPPKLLMYTASYLASGVPSRFKGSGSRTEYTLTISGVQCADAATYYCQTAYYNSRPDTVAFGGGTEVVVK
notes: Fab part as the heavy chain of m5 (PDB 4HT1); as the light chain of m5 (PDB 4HT1); Whole antibody from which the Fab m5 was cut; source: produced by standard procedures
t/2 diss (half-life of immunocomplex): 2.45 h
